Laboratory results: patent publication US20250320291A1

Molecular target: biotinylated CD19 (UniProt P15391)
Test: yeast surface display of the scFv, flow cytometry titration of biotinylated CD19, 1:1 equilibrium binding fit, mean±SD of 3 trials

UniProt P15391, sequence (P15391 20-291 limits assumed): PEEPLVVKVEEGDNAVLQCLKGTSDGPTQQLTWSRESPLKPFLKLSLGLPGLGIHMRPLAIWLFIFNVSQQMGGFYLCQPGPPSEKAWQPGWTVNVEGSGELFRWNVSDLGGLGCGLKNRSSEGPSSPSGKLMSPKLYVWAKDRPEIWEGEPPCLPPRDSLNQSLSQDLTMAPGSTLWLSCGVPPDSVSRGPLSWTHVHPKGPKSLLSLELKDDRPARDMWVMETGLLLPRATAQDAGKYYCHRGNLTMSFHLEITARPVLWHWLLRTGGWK

Question: For FMC63 parental murine anti-CD19 scFv, which Kd is on record?
Answer: 4.8 nM
